Results reported in the supplement of paper PMC7877785.
± gives the uncertainty stated by the source.

Experiment: self-splicing fitness, log relative to wild type (ln ratio); higher = more splicing; Tetrahymena group I intron in knt gene, E. coli kanamycin selection, DiMSum; sequences stand for … in CUCUCU…GGAGGGAAAAGUUAUCAGGCAUGCACCUGGUAGCUAGUCUUUAAACCAAUAGAUUGCAUCGGUUUAAAAGGCAAGACCGUCAAAUUGCGGGAAAGGGGUCAACAGCCGUUCAGUACCAAGUCUCAGGGGAAACUUUGAGAUGGCCUUGCAAAGGGUAUGGUAAUAAGCUGACGGACAUGGUCCUAACCACGCAGCCAAGUCCUAAGUCAACAGAUCUUCUGUUGAUAUGGAUGCAGUUCACAGACUAAAUGUCGGUCGGGGAAGAUGUAUUCUUCUCAUAAGAUAUAGUCGGACCUCUCCUUAAUGGGAGCUAGCGGAUGAAGUGAUGCAACACUGGAGCCGCUGGGAACUAAUUUGUAUGCGAAAGUAUAUUGAUUAGUUUUGGAGUACUCGUGGUCG
Outline: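 Pooled colonies went to amplicon sequencing on an Illumina HiSeq 2500 after six replicate transformations. The plates were LB agar with 100 μg/mL carbenicillin, 50 μM IPTG and 0.2% rhamnose, with or without 25 μg/mL kanamycin, incubated overnight at 37°C or 30°C. The E. coli BL21(DE3) library had all eight P1ex-region intron nucleotides randomised, the intron placed in the knt kanamycin-resistance gene on pET-22b(+). DiMSum fitness is the error-weighted combination of replicate fold changes, kanamycin against none, normalised to wild type.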

Sequence | self-splicing fitness (ln) (30 °C) | self-splicing fitness (ln) (37 °C)
GAUUAGCAAUAUUACGUUGA | -2.8 ± 0.22 | -2.25 ± 0.19
GUCGAGCAAUAUUACGUUUU | -3.92 ± 0.32 | -2.07 ± 0.19
ACUAAGCAAUAUUACGUAAU | -1.14 ± 0.073 | -0.739 ± 0.09
GCAAAGCAAUAUUACGGCCG | -0.0405 ± 0.18 | -1.41 ± 0.33
AGCCAGCAAUAUUACGUAGA | -2.62 ± 0.1 | -1.84 ± 0.15
UUACAGCAAUAUUACGGUUA | -0.071 ± 0.058 | 0.344 ± 0.07
GAUGAGCAAUAUUACGAGAC | -2.67 ± 0.25 | -1.97 ± 0.3
AGUAAGCAAUAUUACGUACU | -2.29 ± 0.12 | -1.76 ± 0.18
GAAGAGCAAUAUUACGUCCG | -3.48 ± 0.39 | –
GACAAGCAAUAUUACGGCCA | -0.973 ± 0.11 | -0.192 ± 0.15
GUACAGCAAUAUUACGAUUU | -1.28 ± 0.11 | -0.49 ± 0.089
GCGCAGCAAUAUUACGAGAU | -1.85 ± 0.089 | -0.7 ± 0.11
GGCAAGCAAUAUUACGGAUU | -0.462 ± 0.11 | -0.427 ± 0.13
GACAAGCAAUAUUACGUAUC | -3.31 ± 0.15 | -0.876 ± 0.14
CAAUAGCAAUAUUACGAUCU | -3.45 ± 0.22 | -1.91 ± 0.21
UCACAGCAAUAUUACGCCCA | -1.47 ± 0.19 | 0.000225 ± 0.15
AAGCAGCAAUAUUACGGUAA | -1.25 ± 0.091 | -0.944 ± 0.094
UUUUAGCAAUAUUACGUCCC | – | -1.78 ± 0.48
GACAAGCAAUAUUACGGGCC | -1.81 ± 0.18 | -1.96 ± 0.17
CUAGAGCAAUAUUACGGCCA | -2.59 ± 0.49 | –

Sequence | self-splicing fitness (ln) (30 °C) | self-splicing fitness (ln) (37 °C)
CUUGAGCAAUAUUACGAGAG | – | -1.44 ± 0.24
AUGGAGCAAUAUUACGCUGC | – | -2.95 ± 0.38
CGUAAGCAAUAUUACGACCG | -0.867 ± 0.1 | -0.46 ± 0.19
GACUAGCAAUAUUACGGCCA | -0.241 ± 0.16 | -0.327 ± 0.26
UCGCAGCAAUAUUACGACUU | -1.84 ± 0.2 | -0.512 ± 0.24
CAUGAGCAAUAUUACGAGCA | -3.68 ± 0.31 | -2.56 ± 0.23
AACAAGCAAUAUUACGGACC | -1.84 ± 0.1 | -0.201 ± 0.11
CACCAGCAAUAUUACGAUCU | -4.3 ± 0.23 | -2.43 ± 0.15
AUAAAGCAAUAUUACGUGAA | -1.39 ± 0.094 | -0.724 ± 0.12
GCUAAGCAAUAUUACGGCAC | -1.31 ± 0.19 | -0.55 ± 0.2
UCUAAGCAAUAUUACGCCCG | -0.879 ± 0.21 | 0.0184 ± 0.38
CACCAGCAAUAUUACGGCGU | -2.28 ± 0.097 | -0.886 ± 0.11
GGUAAGCAAUAUUACGUUGG | -2.59 ± 0.38 | -1.99 ± 0.39
CCGAAGCAAUAUUACGACGG | -3.76 ± 0.27 | -3.11 ± 0.29
AUCCAGCAAUAUUACGCUGC | -3.85 ± 0.19 | -1.59 ± 0.15
CUAUAGCAAUAUUACGGAUU | -3.43 ± 0.24 | -2.29 ± 0.24
UCGGAGCAAUAUUACGCAGC | -2.31 ± 0.5 | –
UUUUAGCAAUAUUACGGUCG | -0.778 ± 0.2 | -0.345 ± 0.18
AUAUAGCAAUAUUACGCGGA | -1.65 ± 0.26 | -1.67 ± 0.17
CUGGAGCAAUAUUACGUCUG | 0.206 ± 0.068 | 0.0818 ± 0.099
